The source of these data is patent US20200087400A1 (EUREKA THERAPEUTICS, published 2020).

Experiment [1] has as its target T1, control peptide A2E-15/HLA-A*02:01 complex on T2 cells (member of the P19 mixture) (human).
T1 construct: Loaded on T2 cells as part of the mixture of 19 control peptides
The experiment is described as follows: flow cytometry, phage on T2 cells. As to the method: (§1) Individual phage clones from enriched phage display panning pools against PSA146/HLA-A*02:01 complex were incubated in the coated plates. Binding of the phage clones was detected by HRP-conjugated anti-M13 antibodies and developed using HRP substrate. The absorbance was read at 450 nm. […] Then, unique antibody clones were identified through DNA sequencing of ELISA-positive clones. […] T2 cells loaded with different peptides and β2M were first stained with purified scFv phage clones, followed by staining with a mouse anti-M13 mAb, and finally R-PE conjugated horse anti-mouse IgG from Vector Labs. Each step of the staining was performed for between 30-60 minutes on ice and the cells were washed twice between stainings. All 16 clones recognized PSA146-loaded T2 cells specifically. FIG. 3 provides examples of PSA146/HLA-A*02:01 specific phage clone binding to peptide-loaded T2 cells through FACS.
For orientation: Flow cytometry measures light scatter and fluorescence of single cells or particles in a stream.

Experiment [2] concerns the target T2, control peptide A2E-5/HLA-A*02:01 complex on T2 cells (member of the P19 mixture) (human).
T2 construct: Loaded on T2 cells as part of the mixture of 19 control peptides
Put plainly: flow cytometry, phage on T2 cells. The procedure:
as §1

Experiment [3] concerns the target T3, control peptide A2E-11/HLA-A*02:01 complex on T2 cells (member of the P19 mixture) (human).
T3 construct: Loaded on T2 cells as part of the mixture of 19 control peptides
The experiment is described as follows: flow cytometry, phage on T2 cells. As to the method: as §1

The target in experiment [4] is T4, control peptide A2E-16/HLA-A*02:01 complex on T2 cells (member of the P19 mixture) (human).
T4 construct: Loaded on T2 cells as part of the mixture of 19 control peptides
Put plainly: flow cytometry, phage on T2 cells. As to the method: as §1

The target in experiment [5] is T5, control peptide A2E-4/HLA-A*02:01 complex on T2 cells (member of the P19 mixture) (human).
T5 construct: Loaded on T2 cells as part of the mixture of 19 control peptides
Put plainly: flow cytometry, phage on T2 cells. The procedure: as §1

Experiment [6] addresses T6, control peptide A2E-14/HLA-A*02:01 complex on T2 cells (member of the P19 mixture) (human).
T6 construct: Loaded on T2 cells as part of the mixture of 19 control peptides
The experiment is described as follows: flow cytometry, phage on T2 cells. As to the method:
as §1

Experiment [7] addresses T7, control peptide A2E-2/HLA-A*02:01 complex on T2 cells (member of the P19 mixture) (human).
T7 construct: Loaded on T2 cells as part of the mixture of 19 control peptides
The experiment is described as follows: flow cytometry, phage on T2 cells. The procedure: as §1

For experiment [8], the target named is T8, control peptide A2E-19/HLA-A*02:01 complex on T2 cells (member of the P19 mixture) (human).
T8 construct: Loaded on T2 cells as part of the mixture of 19 control peptides
The experiment is described as follows: flow cytometry, phage on T2 cells. As to the method:
as §1

Experiment [9] addresses T9, control peptide A2E-3/HLA-A*02:01 complex on T2 cells (member of the P19 mixture) (human).
T9 construct: Loaded on T2 cells as part of the mixture of 19 control peptides
The experiment is described as follows: flow cytometry, phage on T2 cells. The procedure: as §1

The target of experiment [10] is T10, control peptide A2E-23/HLA-A*02:01 complex on T2 cells (member of the P19 mixture) (human).
T10 construct: Loaded on T2 cells as part of the mixture of 19 control peptides
Put plainly: flow cytometry, phage on T2 cells. As to the method:
as §1

For experiment [11], the target named is T11, control peptide A2E-9/HLA-A*02:01 complex on T2 cells (member of the P19 mixture) (human).
T11 construct: Loaded on T2 cells as part of the mixture of 19 control peptides
Put plainly: flow cytometry, phage on T2 cells. The procedure:
as §1

In experiment [12] the target is T12, control peptide A2E-17/HLA-A*02:01 complex on T2 cells (member of the P19 mixture) (human).
T12 construct: Loaded on T2 cells as part of the mixture of 19 control peptides
Put plainly: flow cytometry, phage on T2 cells. The procedure: as §1

Experiment [13] has as its target T13, control peptide A2E-10/HLA-A*02:01 complex on T2 cells (member of the P19 mixture) (human).
T13 construct: Loaded on T2 cells as part of the mixture of 19 control peptides
The experiment is described as follows: flow cytometry, phage on T2 cells. As to the method: as §1

Experiment [14] addresses T14, control peptide A2E-6/HLA-A*02:01 complex on T2 cells (member of the P19 mixture) (human).
T14 construct: Loaded on T2 cells as part of the mixture of 19 control peptides
The experiment is described as follows: flow cytometry, phage on T2 cells. The procedure: as §1

Experiment [15] addresses T15, control peptide A2E-21/HLA-A*02:01 complex on T2 cells (member of the P19 mixture) (human).
T15 construct: Loaded on T2 cells as part of the mixture of 19 control peptides
The experiment is described as follows: flow cytometry, phage on T2 cells. The procedure:
as §1

The target of experiment [16] is T16, control peptide A2E-7/HLA-A*02:01 complex on T2 cells (member of the P19 mixture) (human).
T16 construct: Loaded on T2 cells as part of the mixture of 19 control peptides
The experiment is described as follows: flow cytometry, phage on T2 cells. As to the method: as §1

In experiment [17] the target is T17, control peptide A2E-13/HLA-A*02:01 complex on T2 cells (member of the P19 mixture) (human).
T17 construct: Loaded on T2 cells as part of the mixture of 19 control peptides
Put plainly: flow cytometry, phage on T2 cells. The procedure:
as §1

Experiment [18] concerns the target T18, control peptide A2E-8/HLA-A*02:01 complex on T2 cells (member of the P19 mixture) (human).
T18 construct: Loaded on T2 cells as part of the mixture of 19 control peptides
The experiment is described as follows: flow cytometry, phage on T2 cells. As to the method: as §1

Experiment [19] deals with T19, control peptide A2E-1/HLA-A*02:01 complex on T2 cells (member of the P19 mixture) (human).
T19 construct: Loaded on T2 cells as part of the mixture of 19 control peptides
The experiment is described as follows: flow cytometry, phage on T2 cells. As to the method: as §1

The target in the next experiment is T20, Bio-P19 member A2E-10 (chain 2: C-terminal BirA substrate peptide (BSP), enzymatically biotinylated; its letters are not printed in the patent and it is left out).
T20 construct: also called biotinylated control peptide A2E-10/HLA-A*02:01 monomer
Put plainly: phage ELISA, streptavidin plate, anti-M13-HRP. The procedure: as §1
(In general: In an ELISA, binding on a coated surface is turned into a signal by an enzyme label.)

The target of another experiment is T21, Bio-P19 member A2E-1 (chain 2: C-terminal BirA substrate peptide (BSP), enzymatically biotinylated; its letters are not printed in the patent and it is left out).
T21 construct: also called biotinylated control peptide A2E-1/HLA-A*02:01 monomer
The experiment is described as follows: phage ELISA, streptavidin plate, anti-M13-HRP. As to the method:
as §1

A further experiment has as its target T22, Bio-P19 member A2E-14 (chain 2: C-terminal BirA substrate peptide (BSP), enzymatically biotinylated; its letters are not printed in the patent and it is left out).
T22 construct: also called biotinylated control peptide A2E-14/HLA-A*02:01 monomer
The experiment is described as follows: phage ELISA, streptavidin plate, anti-M13-HRP. The procedure:
as §1

The target in experiment [20] is T23, HLA-A*02:01 on T2 cells with no peptide loaded (human).
T23 construct: TAP-deficient T2 cells, no peptide loaded from outside; also called T2 cells without peptide loading
Put plainly: flow cytometry, phage on T2 cells, anti-M13 + R-PE anti-mouse IgG. As to the method: as §1

Experiment [21] addresses T24, PSA 146-154 peptide/HLA-A*02:01 complex on the cell surface (human).
T24 construct: also called PSA146/HLA-A*02:01; PSA146-loaded T2 cells
The description is as above. As to the method: as §1

B1: PSA146/HLA-A*02:01-specific scFv phage clone #10 (scFv, V domains shown)
VH: QVQLVQSGAEVKKPGSSVKVSCKASGGTFSSYAISWVRQAPGQGLEWMGWINPNSGGTNYAQKFQGRVTMTRDTSISTAYMELSRLRSDDTAVYYCARWSYYYFQQFWSLDGWGQGTLVTVSS
VL: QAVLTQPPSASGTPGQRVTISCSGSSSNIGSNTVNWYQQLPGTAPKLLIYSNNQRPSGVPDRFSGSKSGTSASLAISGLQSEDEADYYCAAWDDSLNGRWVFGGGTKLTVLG
On to B1, for which the binding result in experiment [1], in experiment [2], in experiment [3], in experiment [4], in experiment [5] and in experiment [6] was “no binding” throughout. For the same molecule, the binding result in [7], in [8], in experiment [9], in experiment [10], in experiment [11] and in [12] was “no binding” each time. Besides, the binding result in [13], in [14], in experiment [15], in experiment [16], in [17] and in experiment [18] was “no binding” throughout. Besides, the binding result in experiment [19] is “no binding”; with Bio-P19 member A2E-10, “no binding”; in the experiment with Bio-P19 member A2E-1, “no binding”; in the experiment with Bio-P19 member A2E-14, “no binding”; in [20] it was “no binding”; in experiment [21], “binds”.

B2: PSA146/HLA-A*02:01-specific scFv phage clone #12 (scFv, V domains shown)
VH: QMQLVQSGSEVKKPGASVKVSCKASGYTFTSYGISWVRQAPGQGLEWMGWISAYNGNTDYVQKLQGRVTMTTDTSTNTAYMELGSLGSDDTAVYYCARTNYNKYDIWGQGTLVTVSS
VL: QSVLTQPPSVSGAPGQRVTISCTGSSSNIGAGYDVHWYQQLPGTAPKLLIYGNSNRPSGVPDRFSGSKSGTSASLAITGLQAEDEADYYCQSYDSSLSEVFGTGTKVTVLG
With B2, the binding result in [1], in experiment [2], in experiment [3], in experiment [4], in experiment [5] and in experiment [6] was “no binding” in each case. In addition, the binding result in experiment [7], in experiment [8], in experiment [9], in experiment [10], in experiment [11] and in [12] was “no binding” each time. Moreover, the binding result in experiment [13], in experiment [14], in experiment [15], in experiment [16], in experiment [17] and in experiment [18] was “no binding” throughout. Also, the binding result was “no binding” in [19]; “no binding” with Bio-P19 member A2E-10; “no binding” in the experiment with Bio-P19 member A2E-1; “no binding” with Bio-P19 member A2E-14; “no binding” in experiment [20]; “binds” in [21].

B3: PSA146/HLA-A*02:01-specific scFv phage clone #13 (scFv, V domains shown)
VH: QVQLVQSGAEVKKPGASVKVSCKASGYTFTSYYMHWVRQAPGQGLEWMGGFDPEDGETIYAQKFQGRVTMTEDTSTDTAYMGLSSLRSEDTAVYYCARYSYDYWGQGTLVTVSS
VL: QAVVTQEPSLTVSPGGTVTLTCASSTGAVTSGYYPNWFQQKPGQAPRALIYSTSNKHSWTPARFSGSLLGGKAALTLSGVQPEDEAEYYCLLYYGGAYVFGTGTKVTVLG
Turning to B3, the binding result in experiment [1], in experiment [2], in [3], in experiment [4], in experiment [5] and in experiment [6] was “no binding” each time. The binding result in experiment [7], in experiment [8], in experiment [9], in [10], in experiment [11] and in experiment [12] was “no binding” in each case. The binding result in [13], in [14], in experiment [15], in experiment [16], in experiment [17] and in [18] was “no binding” in each case. The binding result in [19] is reported as “no binding”; with Bio-P19 member A2E-10, “no binding”; with Bio-P19 member A2E-1, “no binding”; with Bio-P19 member A2E-14, “no binding”; in [20] it was “no binding”; in experiment [21], “binds”.
